One test addresses T1, cynomolgus monkey CD3 (cynomolgus monkey, UniProt Q95LI5 22-198).
T1 construct: CD3 endogenously expressed on T cells within cynomolgus monkey PBMCs
As to the kind of experiment: flow cytometry, cynomolgus monkey T cells (PBMCs). As for the experimental part: Cynomolgus monkey PBMCs (Tebu-Bio, The Netherlands; cat. no. PBMCMFA-10) or purified human T cells were plated in polystyrene 96-well round-bottom plates. T cells were derived from human donor buffy coats (Sanquin, Amsterdam, The Netherlands) and isolated using the RosetteSep human T cell enrichment cocktail (Stemcell Technologies, France, cat. no. 15061) according to manufacturer's instructions. […] After washing twice in staining buffer, cells were incubated in 50 μL secondary R-PE-conjugated goat-anti-human IgG antibody at 4° C. for 30 min (1:400 dilution). After washing twice in staining buffer, T cells were stained for T-cell markers CD3 (1:100; Miltenyi biotec, clone 10D12, conjugated to APC), CD4 (1:50; eBioscience, clone OKT4, conjugated to APC-Cy7), CD8 (1:100; Biolegend, clone RPA-T8, conjugated to AF700) and T-cell activation markers CD69 (1:50; BD Biosciences, clone AB2439, conjugated to FITC), CD25 (1:50; eBioscience, clone BC96, conjugated to PE-Cy7) and CD279/PD1 (1:50; BD Biosciences, clone AEH12.2H7, conjugated to BV605). Single stained samples with Ultracomp beads (5 μL; Invitrogen, cat. no. 01-2222-42) were used for compensation adjustments of the flow cytometer. After 30 min of incubation at 4° C., cells were washed twice with staining buffer, resuspended in 100 μL staining buffer and analyzed using a FACS Fortessa (BD Biosciences). Data were processed using FlowJo (BD Biosciences).
(Flow cytometry measures light scatter and fluorescence of single cells or particles in a stream.)

In test [1] the target is T2, human CD30 (human, UniProt P28908 19-595).
T2 construct: The same molecule is used for CD30 on HL/ALCL/NHL cell lines; also called huCD30; TNFRSF8
T2 sequence: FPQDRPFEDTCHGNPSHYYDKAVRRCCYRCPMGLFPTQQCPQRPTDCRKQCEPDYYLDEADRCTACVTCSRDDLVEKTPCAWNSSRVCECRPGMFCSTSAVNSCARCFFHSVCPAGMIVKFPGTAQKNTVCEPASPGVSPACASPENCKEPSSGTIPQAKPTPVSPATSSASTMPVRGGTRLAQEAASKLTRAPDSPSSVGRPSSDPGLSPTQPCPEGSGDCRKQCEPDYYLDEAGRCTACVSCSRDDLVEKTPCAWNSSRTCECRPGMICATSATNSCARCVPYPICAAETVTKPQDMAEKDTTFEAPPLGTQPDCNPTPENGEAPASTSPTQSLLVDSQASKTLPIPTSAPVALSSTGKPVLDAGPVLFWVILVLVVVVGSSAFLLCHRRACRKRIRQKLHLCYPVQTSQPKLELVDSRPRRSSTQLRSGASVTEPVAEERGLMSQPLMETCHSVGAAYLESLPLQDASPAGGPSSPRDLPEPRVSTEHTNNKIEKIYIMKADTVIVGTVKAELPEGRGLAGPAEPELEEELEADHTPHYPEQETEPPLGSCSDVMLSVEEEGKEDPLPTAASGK
The test can be described thus: flow cytometry, HDLM-2 cells, experiment N = 2.

Test [2] concerns the target T2, human CD30. The test can be described thus: flow cytometry, HDLM-2 cells. In a few lines:
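CD3×CD30 bispecific antibodies, 3-fold serial dilutions from 0.0046 to 10 μg/mL, incubated with 3×10⁴ SU-DHL-1 (ALCL) or HDLM-2 (HL) cells for 30 min at 4 °C, then secondary antibody 30 min at 4 °C. Live cells gated by FSC/SSC and TO-PRO-3 exclusion; binding curves fitted by four-parameter sigmoidal regression.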

Test [3] concerns the target T2, human CD30. The test can be described thus: flow cytometry, HDLM-2 cells (HL), range of 3 tests. As for the experimental part:
(§1) Cells (3×10⁴ cells/well) were incubated in polystyrene 96-well round-bottom plates (Greiner bio-one, cat. no. 650180) with serial dilutions of antibodies (range 0.0046 to 10 μg/mL in 3-fold dilution steps) in 50 μL staining buffer at 4° C. for 30 min. After washing twice in staining buffer, cells were incubated with 50 μL secondary antibody at 4° C. for 30 min. […] Next, cells were washed twice in staining buffer, resuspended in 100 μL staining buffer supplemented with TO-PRO-3 iodide (Thermo Fisher Scientific; cat. no. T3605; 1:8000 dilution) and analyzed on a FACSCelesta flow cytometer (BD Biosciences, USA). Live cells were gated based on FSC/SSC and absence of TOPRO-3 staining. Binding curves were analyzed by non-linear regression of log-transformed data (sigmoidal dose-response with variable slope, four parameters) using GraphPad Prism V7.02 software (GraphPad Software, San Diego, CA, USA).

Test [4] has as its target T2, human CD30. The test can be described thus: flow cytometry, L-82 cells (ALCL), average of 2 tests. As for the experimental part: as §1
Test [5] addresses T2, human CD30. The test can be described thus: flow cytometry, L-540 cells (HL), range of 3 tests. As for the experimental part: as §1
The target of test [6] is T2, human CD30. The test can be described thus: flow cytometry, SUP-T1 cells (TLL), range of 2 tests. As for the experimental part:
as §1

Test [7] deals with T2, human CD30. The test can be described thus: flow cytometry, JVM-2 cells (MCL), average of 3 tests. As for the experimental part:
as §1

For test [8], the target named is T2, human CD30. The test can be described thus: flow cytometry, HH cells (CTCL), average of 3 tests. As for the experimental part:
as §1

Test [9] has as its target T2, human CD30. The test can be described thus: flow cytometry, SUP-T1 cells (TLL), average of 2 tests; SUP-T1 cells (TLL), average of 2 tests. As for the experimental part:
as §1

For test [10], the target named is T2, human CD30. As to the kind of experiment: flow cytometry, KM-H2 cells (HL), average of 3 tests. As for the experimental part:
as §1

Where a chain is given by its changes, count along the chain named.

T1 sequence (Q95LI5 22-198): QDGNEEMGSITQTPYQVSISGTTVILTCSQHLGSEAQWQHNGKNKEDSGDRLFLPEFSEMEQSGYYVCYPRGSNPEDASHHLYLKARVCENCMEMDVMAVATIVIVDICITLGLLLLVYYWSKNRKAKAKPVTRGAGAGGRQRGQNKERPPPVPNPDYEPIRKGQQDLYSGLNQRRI

B1: bsG1-huCD3-FEALxCD30-MDX060-FEAR (bispecific antibody, human IgG1, kappa, lambda)
heavy 1: not shown
light 1: not shown
heavy 2: QVQLQQWGAGLLKPSETLSLTCAVYGGSFSAYYWSWIRQPPGKGLEWIGDINHGGGTNYNPSLKSRVTISVDTSKNQFSLKLNSVTAADTAVYYCASLTAYWGQGSLVTVSSASTKGPSVFPLAPSSKSTSGGTAALGCLVKDYFPEPVTVSWNSGALTSGVHTFPAVLQSSGLYSLSSVVTVPSSSLGTQTYICNVNHKPSNTKVDKRVEPKSCDKTHTCPPCPAPEFEGGPSVFLFPPKPKDTLMISRTPEVTCVVVAVSHEDPEVKFNWYVDGVEVHNAKTKPREEQYNSTYRVVSVLTVLHQDWLNGKEYKCKVSNKALPAPIEKTISKAKGQPREPQVYTLPPSREEMTKNQVSLTCLVKGFYPSDIAVEWESNGQPENNYKTTPPVLDSDGSFFLYSRLTVDKSRWQQGNVFSCSVMHEALHNHYTQKSLSLSPG
light 2: DIQMTQSPTSLSASVGDRVTITCRASQGISSWLTWYQQKPEKAPKSLIYAASSLQSGVPSRFSGSGSGTDFTLTISSLQPEDFATYYCQQYDSYPITFGQGTRLEIKRTVAAPSVFIFPPSDEQLKSGTASVVCLLNNFYPREAKVQWKVDNALQSGNSQESVTEQDSKDSTYSLSSTLTLSKADYEKHKVYACEVTHQGLSSPVTKSFNRGEC
notes: also called bsG1-huCD3xCD30-MDX060
As for B1, the EC50 (read off the curve) (in general, the midpoint of the concentration-response curve) with cynomolgus monkey CD3 was roughly 0.4 µg/mL; with human CD30 [2] it was roughly 0.3 µg/mL. Moreover, it took 0.12 µg/mL to reach a half-maximal effect in the test with human CD30 [1] (EC50).

B2: bsG1-huCD3-FEALxCD30-MDX060-FERR (bispecific antibody, human IgG1, kappa, lambda)
heavy 1: not shown
light 1: not shown
heavy 2: B1 heavy 2 with G231R, A260D
light 2: B1 light 2
notes: Bispecific IgG1 made by controlled Fab-arm exchange; also called bsIgG1-huCD3-FEALxCD30-MDX060-FERR; bsG1-huCD3×CD30-MDX060
For B2, the concentration giving a half-maximal response (EC50) (as a rule, the concentration needed to bring the measured effect to its halfway point) with human CD30 [3] is 0.125 to 0.221 µg/mL; with human CD30 [4], 0.2 µg/mL; with human CD30 [5] it was 0.202 to 0.469 µg/mL; with human CD30 [6], 0.257 to 0.434 µg/mL; with human CD30 [7] it was 0.126 µg/mL; with human CD30 [8], 0.195 µg/mL. Also, the EC50 with human CD30 [9] was determined as 0.346 µg/mL; with human CD30 [10], 0.159 µg/mL.

For the origin of these results see patent US20260234255A1 (Genmab, published 2026).
